# According to patent US20260132208A1 (DOMAIN THERAPEUTICS, published 2026):
# Values joined by “and” are separate entries in the source; they are usually repeats but may differ in a detail not shown here. Identical values can stand only once.
# How the values were obtained:
# human CCR8 [1] = target: T1, human CCR8 (human, UniProt P51685 1-355); experiment: flow cytometry, HUT78 cells (endogenous CCR8)
# T1 construct: also called hCCR8; CC chemokine receptor 8
# Protocol: In human activated T cells model, prior to mAb incubation, cells were first incubated with 200 nM of hCCL1 (R&D Systems, Minneapolis, MN, USA) or buffer PBS (Invitrogen by Thermofisher Scientific, Illkirch-Graffenstaden, France) supplemented by 2% Fetal Bovine Serum (Invitrogen by Thermofisher Scientific, Illkirch-Graffenstaden, France) and 2 mM EDTA (Invitrogen by Thermofisher Scientific, Illkirch-Graffenstaden, France) during 1 hour at 4° C. To determine EC50 value, 8 concentrations of anti-CCR8 mAb were tested. Unbound antibodies were washed away with PBS (Invitrogen by Thermofisher Scientific, Illkirch-Graffenstaden, France) supplemented by 2% Fetal Bovine Serum (Invitrogen by Thermofisher Scientific, Illkirch-Graffenstaden, France) and 2 mM EDTA (Invitrogen by Thermofisher Scientific, Illkirch-Graffenstaden, France). Subsequently, cells are centrifuged (5 min at 400 g) and bound antibody is detected with F(ab′)2-Goat anti-Mouse IgG (H+L) Cross-Adsorbed Secondary Antibody, Alexa Fluor 488 (dilution 1/500) (Invitrogen by Thermofisher Scientific, Illkirch-Graffenstaden, France) or with F(ab′)₂-Goat anti-Human IgG Fc Secondary Antibody, PE (Invitrogen by Thermofisher Scientific, Illkirch-Graffenstaden, France) (dilution 1/1000) at 4° C. for 30 min. Detection reagent is washed away and cells are centrifuged (5 min at 400 g) and resuspended in 30 μL PBS. Bound detection antibody is quantified on a MacsQuant16 (Miltenyi, Gladbach, Germany) (B1 or B2 channel, 5000 events per acquisition). During the experiment, the respective isotype mAb controls (mouse IgG1, mouse IgG2a, mouse IgG2b, mouse IgG3 or human IgG1) (Biolegend, Amsterdam, The Netherlands) are included to exclude any unspecific binding events. EC50 values were determined via nonlinear fit “log (agonist) vs.response—Variable slope (four parameters)” function of Graphpad prism. EC50 values were not constantly determined in the same experiments.
# Anti-CCR8 mAb cellular reactivity was also evaluated on native human CCR8 from HUT78 cell line by flow cytometry. In Table 4.3, Mean Fluorescence Intensity (Fold change to isotype control), the percentage of labelled cells and EC50 in nM of some anti-CCR8 antibodies are presented.
# [2] = target: T2, human CCR8 with a SNAP-tag at the N-terminus (human, UniProt P51685 1-355, SNAP-tag labelled covalently with Lumi4-Terbium); experiment: cell-based or functional assay
# human CCR8 [3] = target: T1, human CCR8; experiment: cell-based or functional assay
# [4] = target: T2, human CCR8 with a SNAP-tag at the …; experiment: HTRF Tag-lite, inhibition of hCCL1-AF647 binding to SNAP-hCCR8 on HEK-293 cells
# Protocol: The inhibition of CCL1 binding to hCCR8 was evaluated with the Tag-Lite® technology from Cisbio (Revvity). Human CCR8 is engineered with a SNAP-tag at the N-terminus of the GPCR. hCCR8 SNAP-tag is transiently transfected on HEK-293 cell line using FuGene® (Promega, Madison, WI, USA). 48 hours after transfection, cells are labeled with the substrate Lumi4-Terbium® (Cisbio, Codolet, France) which covalently reacts with the SNAP-tag, for 1 h at 37° C. Thawed or freshly labeled cells are plated in a 384 low volume white plate (GREINER Bio-One, Courtaboeuf, France) (10000 cells/well/10 μl). […] The Kd was previously obtained in a saturation binding assay on the same cells. […] The plate is next incubated at 21° C. for 2 h. Detection of HTRF signal is performed on the multiplate reader EnVision (PerkinElmer, Waltham, MA, USA). The HTRF (665/620) ratio is calculated by EnVision software, the data exported are considered as the total binding. The specific binding is calculated then by subtracting the non-specific signal from the total binding. The Ki and IC₅₀ are calculated using the “One site-Fit Ki” and “One site-FitlogIC50” from GraphPad Prism 9 (Graphpad Software, San Diego, CA, USA), respectively.
# human CCR8 [5] = target: T1, human CCR8; experiment: cell-based or functional assay; remark: listed apart in the source
# human CCR8 [6] = target: T1, human CCR8; experiment: cell-based or functional assay; remark: listed apart in the source
# human CCR8 [7] = target: T1, human CCR8; experiment: cell-based or functional assay; remark: listed apart in the source
# pm3 = target: T3, pm3 (Y17 sulfated; Y15 and Y16 not sulfated); experiment: ELISA on coated peptide [cont.]
# T3 construct: also called sulfated CCR8 N-terminal peptide pm3
# T3 sequence (peptide, as listed by the source): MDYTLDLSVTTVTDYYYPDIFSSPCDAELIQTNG
# How it was run: (§1)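 Binding signal was the OD following TMB colour development for 15 min. The mAbs (1 μg/mL and a 1/10 dilution) were incubated 90 min at room temperature on wells coated with 500 ng/ml peptide.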
# pm2 = target: T4, pm2 (sulfated tyrosine(s) among Y15, Y16, Y17; which ones is not told (the underlining of Table 1 is lost in the text)); experiment: ELISA on coated peptide [cont.]
# T4 construct: also called sulfated CCR8 N-terminal peptide pm2
# T4 sequence (peptide, as listed by the source): as above
# How it was run: as §1
# pm8 = target: T5, pm8 (Y15, Y16 and Y17 sulfated); experiment: ELISA on coated peptide [cont.]
# T5 construct: also called sulfated CCR8 N-terminal peptide pm8
# T5 sequence (peptide, as listed by the source): as above
# How it was run: as §1
# pwt1 = target: T6, pwt1 (none (unmodified peptide)); experiment: ELISA on coated peptide [cont.]
# T6 construct: also called unmodified CCR8 N-terminal peptide
# T6 sequence (peptide, as listed by the source): as above
# How it was run: as §1
# pm4 = target: T7, pm4 (sulfated tyrosine(s) among Y15, Y16, Y17; which ones is not told (the underlining of Table 1 is lost in the text)); experiment: ELISA on coated peptide [cont.]
# T7 construct: also called sulfated CCR8 N-terminal peptide pm4
# T7 sequence (peptide, as listed by the source): as above
# How it was run: as §1
# pm1 = target: T8, pm1 (sulfated tyrosine(s) among Y15, Y16, Y17; which ones is not told (the underlining of Table 1 is lost in the text)); experiment: ELISA on coated peptide [cont.]
# T8 construct: also called sulfated CCR8 N-terminal peptide pm1
# T8 sequence (peptide, as listed by the source): as above
# How it was run: as §1
# pm5 = target: T9, pm5 (Y15 and Y17 sulfated; Y16 not sulfated); experiment: ELISA on coated peptide [cont.]
# T9 construct: also called sulfated CCR8 N-terminal peptide pm5
# T9 sequence (peptide, as listed by the source): as above
# How it was run: as §1
# pm6 = target: T10, pm6 (Y16 and Y17 sulfated; Y15 not sulfated); experiment: ELISA on coated peptide [cont.]
# T10 construct: also called sulfated CCR8 N-terminal peptide pm6
# T10 sequence (peptide, as listed by the source): as above
# How it was run: as §1
# human CCR8 [8] = target: T1, human CCR8; experiment: cell-based or functional assay; remark: listed apart in the source
# human CCR8 [9] = target: T1, human CCR8; experiment: cell-based or functional assay; remark: listed apart in the source
% of labelled cells (human CCR8 [1]) [%],"% hCCR8 internalization with CCL1 300 nM, mAb 1 µg/ml (HTRF) [2] [%]","% hCCR8 internalization with CCL1 300 nM, mAb 10 µg/ml (HTRF) [2] [%]","IC50 of CCL1-induced hCCR8 Gi2 signaling (BRET, HEK-293) (human CCR8 [3])",IC50 [4] [µg/mL],Ki [4] [µg/mL],"extrapolated top plateau of hCCL1 curve with 5 µg/mL mAb, protocol #3 (human CCR8 [5])","ADCC % max lysis, HUT78 targets, NK donor 3 (human CCR8 [6]) [%]","ADCC % max lysis, HUT78 targets, NK donor 4 (human CCR8 [6]) [%]","ADCC EC50, HUT78 targets, NK donor 3 (human CCR8 [6]) [nM]","ADCC EC50, HUT78 targets, NK donor 4 (human CCR8 [6]) [nM]","residual hCCL1 (100 nM) Gi2 response, protocol #2, mAb 0.08 µg/mL (human CCR8 [7]) [%]","residual hCCL1 (100 nM) Gi2 response, protocol #2, mAb 0.4 µg/mL (human CCR8 [7]) [%]","residual hCCL1 (100 nM) Gi2 response, protocol #2, mAb 10 µg/mL (human CCR8 [7]) [%]","residual hCCL1 (100 nM) Gi2 response, protocol #3, mAb 0.05 µg/mL (human CCR8 [7]) [%]","residual hCCL1 (100 nM) Gi2 response, protocol #3, mAb 0.5 µg/mL (human CCR8 [7]) [%]","residual hCCL1 (100 nM) Gi2 response, protocol #3, mAb 5 µg/mL (human CCR8 [7]) [%]",binding result (pm3),binding result (pm2),binding result (pm8),Binder,other results
,,,,,,,25,28,0.218,0.053,,,,,,,,,,"anti-CCR8 mAb 1-34 (antibody, human IgG1, kappa) heavy: not shown light: DVVMTQTPLSLPVSLGDQASISCRCTQSLLHTNGDTYLHWYLQKPGQSPKLLIYKVSNRFSGVPDRFSGSGSGTDFTLKISRVEAEDLGVYFCSQSTHVPYTFGGGTKLEIKRTVAAPSVFIFPPSDEQLKSGTASVVCLLNNFYPREAKVQWKVDNALQSGNSQESVTEQDSKDSTYSLSSTLTLSKADYEKHKVYACEVTHQGLSSPVTKSFNRGEC","ADCP % max phagocytosis, HUT78 targets, MDM donor 9 (human CCR8 [8]): 7.27%"
34,,,,,,,,,,,,,,,,,,,,"anti-CCR8 mAb 1-26 (antibody, human IgG1, kappa, afucosylated Fc glycan, Afucosylated humanized mAb; same chains as 1-21) heavy: not shown light: DIVMTQAAPSLSVTPGESASISCTSSKSLLHSNGNTYLYWFLQKPGQSPQLLIYRMSNLASGVPDRFSGSGSGTAFTLKISRVEAEDVGVYYCMQHREYPFTFGSGTKLEIKRTVAAPSVFIFPPSDEQLKSGTASVVCLLNNFYPREAKVQWKVDNALQSGNSQESVTEQDSKDSTYSLSSTLTLSKADYEKHKVYACEVTHQGLSSPVTKSFNRGEC","EC50 (human CCR8 [1]): 0.4 nM; MFI fold change to isotype ctrl (human CCR8 [1]): 2.5 fold; ADCC % max lysis, HUT78 targets, NK donor 1 (human CCR8 [9]): 22%; ADCC % max lysis, HUT78 targets, NK donor 2 (human CCR8 [9]): 20%; ADCC EC50, HUT78 targets, NK donor 1 (human CCR8 [9]): 0.00224 nM; ADCC EC50, HUT78 targets, NK donor 2 (human CCR8 [9]): 0.00216 nM; ADCP % max phagocytosis, HUT78 targets, MDM donor 9 (human CCR8 [8]): 8.29%"

# Continued, binder first:
Binder,% of labelled cells (human CCR8 [1]) [%],"% hCCR8 internalization with CCL1 300 nM, mAb 1 µg/ml (HTRF) [2] [%]","% hCCR8 internalization with CCL1 300 nM, mAb 10 µg/ml (HTRF) [2] [%]","IC50 of CCL1-induced hCCR8 Gi2 signaling (BRET, HEK-293) (human CCR8 [3])",IC50 [4] [µg/mL],Ki [4] [µg/mL],"extrapolated top plateau of hCCL1 curve with 5 µg/mL mAb, protocol #3 (human CCR8 [5])","ADCC % max lysis, HUT78 targets, NK donor 3 (human CCR8 [6]) [%]","ADCC % max lysis, HUT78 targets, NK donor 4 (human CCR8 [6]) [%]","ADCC EC50, HUT78 targets, NK donor 3 (human CCR8 [6]) [nM]","ADCC EC50, HUT78 targets, NK donor 4 (human CCR8 [6]) [nM]","residual hCCL1 (100 nM) Gi2 response, protocol #2, mAb 0.08 µg/mL (human CCR8 [7]) [%]","residual hCCL1 (100 nM) Gi2 response, protocol #2, mAb 0.4 µg/mL (human CCR8 [7]) [%]","residual hCCL1 (100 nM) Gi2 response, protocol #2, mAb 10 µg/mL (human CCR8 [7]) [%]","residual hCCL1 (100 nM) Gi2 response, protocol #3, mAb 0.05 µg/mL (human CCR8 [7]) [%]","residual hCCL1 (100 nM) Gi2 response, protocol #3, mAb 0.5 µg/mL (human CCR8 [7]) [%]","residual hCCL1 (100 nM) Gi2 response, protocol #3, mAb 5 µg/mL (human CCR8 [7]) [%]",binding result (pm3),binding result (pm2),binding result (pm8),other results
"anti-CCR8 mAb 1-23 (antibody, human IgG1, kappa, V domains shown, Humanized mAb, human IgG1 / kappa) VH: QVQLVQSGPEVVKPGASVKVSCKTSGYTFTEYTIHWVRQAPGQSLEWVGGINPNNGNTRYDQKFQGRVTITRDKSASTAYMELRSLTSEDTAVYYCARVARSSGSGPYAMDYWGQGTTVTVSS VL: DVVMTQSPLSLPVTLGDQASISCRCSQSLLHTNGDTYLHWYLQRPGQSPRLLIYKVSNRFSGVPDRFSGSGSGTDFTLKISRVEAEDVGVYFCSQSTHVPYTFGGGTKVEIKR",96,44,29,0.022 µg/mL and 0.148 nM,0.04,0.02,569000 % of hCCL1 (100 nM),15,16,0.505,0.573,67,55,32,86,60,42,binds,binds,binds,binding result (pwt1): binds; binding result (pm4): binds; binding result (pm1): binds; binding result (pm5): binds; binding result (pm6): binds
"anti-CCR8 mAb 1-24 (antibody, human IgG1, kappa, V domains shown, Humanized mAb, human IgG1 / kappa) VH: QVQLQQSGPEVVKPGASVKVSCKTSGYTFTEYTIHWVRQSHGQSLEWVGGINPNNGNTRYDQKFKGRVTITIDKSSSTAYMELRSLTSEDTAVYYCARVARSSGSGPYAMDYWGQGTTVTVSS VL: DVVMTQSPLSLPVTLGDQASISCRCSQSLLHTNGDTYLHWYLQRPGQSPRLLIYKVSNRFSGVPDRFSGSGSGTDFTLKISRVEAEDVGVYFCSQSTHVPYTFGGGTKVEIKR",88,44,36,0.034 µg/mL and 0.224 nM,0.04,0.02,366000 % of hCCL1 (100 nM),,,,,77,66,41,73,52,37,binds,binds,binds,EC50 (human CCR8 [1]): 0.2 nM; binding result (pwt1): binds; binding result (pm4): binds; binding result (pm1): binds; binding result (pm5): binds; binding result (pm6): binds
